Results from patent publication US20260234660A1 (Regeneron, published 2026).

What was measured:
[1] = target: T1, human CACNG1, cell surface-expressed (human, UniProt Q06432 1-222); experiment: cell-based or functional assay
[2] = target: T1, human CACNG1, cell surface-expressed; experiment: cell-based or functional assay; remark: listed apart in the source
[3] = target: T1, human CACNG1, cell surface-expressed; experiment: cell-based or functional assay; remark: listed apart in the source
[4] = target: T2, nanodisc embedded human CACNG1 expressed with a C-terminal PADRE-Flag-His tag (human, UniProt Q06432 1-222); experiment: SPR (Biacore T200), 25 C, anti-His-captured human CACNG1 nanodisc, antibody as analyte
T2 construct: Membrane protein (gamma-1 subunit of the skeletal muscle L-type calcium channel) in a nanodisc; also called human CACNG1 nanodisc; CACNG1 nanodisc; not shown: C-terminal PADRE-Flag-His tag
Protocol: Equilibrium dissociation constants (KD values) for nanodisc embedded human CACNG1 expressed with a C-terminal PADRE-Flag-His tag (human CACNG1 nanodisc) binding to purified anti-hCACNG1 antibodies were determined using a real-time surface plasmon resonance biosensor technology with a Biacore T200 instrument. The CM5 Biacore sensor surface was derivatized by amine coupling with a monoclonal mouse anti-His antibody (Cytiva; Marlborough, MA). All Biacore binding studies were performed in a buffer composed of 0.01M HEPES, 0.15M NaCl, 1 mM CaCl₂), 0.5 mM MgCl₂, pH 7.4 (HBS-N++ running buffer). Different concentrations of anti-hCACNG1 antibodies (ranging from 300 nM to 12 nM in 5-fold serial dilutions) prepared in HBS-N++ running buffer were injected over the captured human CACNG1 nanodisc at a flow rate of 30 μL/minute. Antibody association was monitored for 2 minutes while dissociation was monitored in HBS-N++ running buffer for 5 minutes. At the end of each cycle, the human CACNG1 nanodisc capture surface was regenerated using three 10 second injections of 10 mM Gly pH1.5. All binding kinetics experiments were performed at 25° C.

[5] = target: T3, mouse CACNG1 on myofibers of wildtype mice (mouse, UniProt O70578 1-223); experiment: immunofluorescence on live single myofibers ex vivo (wildtype mice), fluorescent secondary antibody, confocal imaging
T3 construct: whole, on cells; Target inferred from the cells: the wildtype myofibers carry mouse CACNG1, which the CACNG1^Hu/Hu mice have replaced by human CACNG1; also called wildtype (WT) myofibers
T3 sequence (looked up): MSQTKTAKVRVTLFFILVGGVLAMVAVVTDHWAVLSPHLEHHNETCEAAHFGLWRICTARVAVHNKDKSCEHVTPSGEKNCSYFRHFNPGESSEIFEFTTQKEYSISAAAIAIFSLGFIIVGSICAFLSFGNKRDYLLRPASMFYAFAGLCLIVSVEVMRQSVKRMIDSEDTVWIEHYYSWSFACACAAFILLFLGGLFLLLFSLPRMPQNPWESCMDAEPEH
Protocol: Single myofibers were isolated from either wildtype mice, mice that were homozygous for the deletion of CACNG1 (referred to as CACNG1 knockout mice), or mice that were homozygous for the expression of human CACNG1 in place of mouse CACNG1 (referred to as CACNG1^{Hu/Hu}). The gastrocnemius muscle was removed, collagenase digested, and single myofibers were isolated, washed, and incubated overnight at 37° C. at 5% C02, in DMEM+10% horse serum. […] Myofibers were then washed twice in DMEM+10% horse serum, and subsequently incubated with 10 ug/mL of fluorescent-conjugated secondary antibodies for 30 minutes, washed twice in DMEM+10% horse serum, and then fixed with 4% paraformaldehyde (PFA) for 15 minutes at room temperature. Single fibers were then washed twice with PBS, stained with Hoechst for 5 minutes, washed once more with PBS, then transferred to microscope slides, coverslipped, and imaged using a Zeiss LSM 710 confocal microscope.

T1 sequence (Q06432 whole entry): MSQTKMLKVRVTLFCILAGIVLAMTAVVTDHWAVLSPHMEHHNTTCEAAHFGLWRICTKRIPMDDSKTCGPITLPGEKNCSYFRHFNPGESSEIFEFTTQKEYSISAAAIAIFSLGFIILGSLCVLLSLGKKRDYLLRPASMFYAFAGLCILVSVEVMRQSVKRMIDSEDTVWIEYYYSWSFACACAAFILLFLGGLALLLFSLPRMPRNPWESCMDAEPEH
T2 sequence (Q06432 whole entry): as above

B1: REGN5972-M3004 (antibody, V domains shown)
VH: QVQLVESGGGVVQPGRSLRLSCTASGFTFRSYGMHWVRQAPGKGLEWVSVIWIDGNNIYYADSVKGRFTISRDNSKNTLYLQMDSLRAEDTAVYYCARRLAITSAAPFDYWGQGTLVTVSS
VL: not shown
modifications: N180Q in the constant region (heading of the 2nd table, row 736); linker-payload M3004 (VC-PAB linker, DHT)
With B1 the “EC50; androgen receptor luciferase reporter (RLU), hCACNG1.AR.Luc LNCaP cells, 24 hours” value [1] was 19 nM, the “EC50; androgen receptor luciferase reporter (RLU), hCACNG1.AR.Luc LNCaP cells, 48 hours” value [2] was 6.49 nM and the “EC50; androgen receptor luciferase reporter (RLU), hCACNG1.AR.Luc LNCaP cells, 72 hours” value [3] was 7.79 nM.

B2: H4H31265P2/REGN5972 (antibody, V domains shown)
VH: B1 VH
VL: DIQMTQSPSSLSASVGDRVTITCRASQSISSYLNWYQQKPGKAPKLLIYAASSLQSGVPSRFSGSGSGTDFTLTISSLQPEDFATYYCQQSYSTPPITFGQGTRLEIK
notes: also called antibody designation 7
With B2 the “mAb Bound at 300 nM (RU)” value [4] was 14 RU and the binding result [5] was “no binding (tested: 100 nM)”.

B3: H1M31941N (antibody, mouse IgG1, kappa, V domains shown)
VH: QVQLVQSGAEVKKPGASVKVSCKASGYAFTTYGITWVRQAPGQGLEWMGWISAYNGNTNYAEKVQGRFTMTTDTSTNTAYMELRSLRSDDTAVYFCARKGHYGSGTYYNPFGFDFWGQGTMVTVSS
VL: EIMLMQSPGTLSLSPGERATLSCRASQSVSSSYLAWYQQKPGQAPRLLIYGASSRATDIPDRFSGSGSGTDFTLTISRLEPEDFAVYFCQQYYGSPWTFGQGTKVEIKR
notes: also called antibody designation 8
B3: no binding (tested: 100 nM) [5].
